Reference: patent US5716804, “Mammalian interleukin-10 (IL-10) super-activating receptors; and variants” (Schering Corporation, dated 1998)
“And” between values parts separate entries of the source, which are not always exact repeats. Equal values may be shown once.

Experiments:
mIL-10R Δ282-458 (mouse) = conditions: scale: log greater proliferative response than wild-type mIL-10R
mIL-10R Δ282-414 (mouse) = conditions: scale: log greater proliferative response than wild-type mIL-10R
mIL-10R Δ282-389 (mouse) = conditions: scale: log greater proliferative response than wild-type mIL-10R
the mutant mIL-10R = assay: binding of iodinated hIL-10 to Ba/F3 transfectants, Scatchard analysis
[1] = biological target: T1, ^125 I-hIL-10 (iodinated recombinant CHO-derived human IL-10) (human, UniProt P22301, iodinated (125I); labelled residue not stated); assay: Scatchard analysis of 125I-hIL-10 saturation binding to Ba/F3 transfectants
Method: Approximately 5×10^6 cells for each cell line tested were pelleted by centrifugation at 200×g for 10 min, washed in PBS, and resuspended in 200 μl binding buffer (PBS, 10% fetal calf serum, 0.1% NaN_3) containing iodinated hIL-10 at a concentration of 100–500 pM. After incubation at 4° C. for two hours in a rotary mixer, the cells were centrifuged at 200×g for 10 min, resuspended in 100 μl binding buffer without labeled hIL-10, layered over 200 μl of a 1:1 mixture of dibutyl- and dioctyl-phthalate oils in elongated microcentrifuge tubes, centrifuged at 400×g for 5 min at 4° C., and quick frozen in liquid nitrogen. The cell pellets were then cut and counted in a Clinigamma 1272 counter (Pharmacia LKB). Non-specific binding was determined by performing the binding in the presence of 500 to 1000-fold molar excess unlabeled hIL-10. For saturation binding experiments, two-fold serial dilutions of approximately 600 pM solution of iodinated hIL-10 were used, with a parallel series done to determine non-specific binding. Scatchard analysis was performed on the data points obtained using the EBDA Program (Elsevier-Biosoft, Cambridge, U.K.). Antibody inhibition was done under the above binding conditions but with the addition of a 100-fold molar excess of each of the indicated monoclonal antibodies. Cytokine specificity was determined under similar conditions but with the addition of 500-fold molar excess of the cytokines indicated. Similar measurements can be made using the BIACORE apparatus (Pharmacia LKB) following manufacturer's recommendations.

[2] = biological target: T1, ^125 I-hIL-10 (iodinated recombinant …); assay: binding of iodinated hIL-10 to Ba/F3 transfectants

IL-10 (ligand)
proliferative response to IL-10 of Ba/F3 transfectants (mIL-10R Δ282-458 (mouse)): 1.5 and 2
proliferative response to IL-10 of Ba/F3 transfectants (mIL-10R Δ282-414 (mouse)): 1.5 and 2
proliferative response to IL-10 of Ba/F3 transfectants (mIL-10R Δ282-389 (mouse)): 1.5 and 2

^125 I-hIL-10 (iodinated recombinant CHO-derived human IL-10) (from UniProt P22301) (ligand)
Kd (the mutant mIL-10R): 0.4 to 0.6 nM

B1: mIL-10R Δ483-559 (receptor)
chain: LEFIAYGTELPSPSYVWFEARFFQHILHWKPIPNQSESTYYEVALKQYGNSTWNDIHICRKAQALSCDLTTFTLDLYHRSYGYRARVRAVDNSQYSNWTTTETRFTVDEVILTVDSVTLKAMDGIIYGTIHPPRPTITPAGDEYEQVFKDLRVYKISIRKFSELKNATKRVKQETFTLTVPIGVRKFCVKVLPRLESRINKAEWSEEQCLLITTEQYFTVTNLSILVISMLLFCGILVCLVLQWYIRHPGKLPTVLVFKKPHDFFPANPLCPETPDAIHIVDLEVFPKVSLELRDSVLHGSTDSGFGSGKPSLQTEESQFLLPGSHPQIQGTLGKEESPGLQATCGDNTDSGICLQEPGLHSSMGPAWKQQLGYTHQDQDDSDVNLVQNSPGQPKYTQDASALGHVCLLEPKAPEEKDQVMVTFQGYQKQTRWKAEAAGPAECLDEEIPLTDAFDPELGVHLQDDLAWPPPALAAGYLKQES
Kd [1]: 0.54 nM

B2: mIL-10R Δ282-389 (receptor)
chain: LEFIAYGTELPSPSYVWFEARFFQHILHWKPIPNQSESTYYEVALKQYGNSTWNDIHICRKAQALSCDLTTFTLDLYHRSYGYRARVRAVDNSQYSNWTTTETRFTVDEVILTVDSVTLKAMDGIIYGTIHPPRPTITPAGDEYEQVFKDLRVYKISIRKFSELKNATKRVKQETFTLTVPIGVRKFCVKVLPRLESRINKAEWSEEQCLLITTEQYFTVTNLSILVISMLLFCGILVCLVLQWYIRHPGKLPTVLVFKKPHDFFPANPLCPETPDAIHIVSPGQPKYTQDASALGHVCLLEPKAPEEKDQVMVTFQGYQKQTRWKAEAAGPAECLDEEIPLTDAFDPELGVHLQDDLAWPPPALAAGYLKQESQGMASAPPGTPSRQWNQLTEEWSLLGVVSCEDLSIESWRFAHKLDPLDCGAAPGGLLDSLGSNLVTLPLISSLQVEE
binding result [2]: binds

B3: mIL-10R Δ282-458 (receptor)
chain: LEFIAYGTELPSPSYVWFEARFFQHILHWKPIPNQSESTYYEVALKQYGNSTWNDIHICRKAQALSCDLTTFTLDLYHRSYGYRARVRAVDNSQYSNWTTTETRFTVDEVILTVDSVTLKAMDGIIYGTIHPPRPTITPAGDEYEQVFKDLRVYKISIRKFSELKNATKRVKQETFTLTVPIGVRKFCVKVLPRLESRINKAEWSEEQCLLITTEQYFTVTNLSILVISMLLFCGILVCLVLQWYIRHPGKLPTVLVFKKPHDFFPANPLCPETPDAIHIVGVHLQDDLAWPPPALAAGYLKQESQGMASAPPGTPSRQWNQLTEEWSLLGVVSCEDLSIESWRFAHKLDPLDCGAAPGGLLDSLGSNLVTLPLISSLQVEE
binding result [2]: binds

B4: wild-type mouse IL-10 receptor (mIL-10R) (receptor)
chain: LEFIAYGTELPSPSYVWFEARFFQHILHWKPIPNQSESTYYEVALKQYGNSTWNDIHICRKAQALSCDLTTFTLDLYHRSYGYRARVRAVDNSQYSNWTTTETRFTVDEVILTVDSVTLKAMDGIIYGTIHPPRPTITPAGDEYEQVFKDLRVYKISIRKFSELKNATKRVKQETFTLTVPIGVRKFCVKVLPRLESRINKAEWSEEQCLLITTEQYFTVTNLSILVISMLLFCGILVCLVLQWYIRHPGKLPTVLVFKKPHDFFPANPLCPETPDAIHIVDLEVFPKVSLELRDSVLHGSTDSGFGSGKPSLQTEESQFLLPGSHPQIQGTLGKEESPGLQATCGDNTDSGICLQEPGLHSSMGPAWKQQLGYTHQDQDDSDVNLVQNSPGQPKYTQDASALGHVCLLEPKAPEEKDQVMVTFQGYQKQTRWKAEAAGPAECLDEEIPLTDAFDPELGVHLQDDLAWPPPALAAGYLKQESQGMASAPPGTPSRQWNQLTEEWSLLGVVSCEDLSIESWRFAHKLDPLDCGAAPGGLLDSLGSNLVTLPLISSLQVEE
Kd [1]: 0.28 nM

B5: mIL-10R Δ282-414 (receptor)
chain: LEFIAYGTELPSPSYVWFEARFFQHILHWKPIPNQSESTYYEVALKQYGNSTWNDIHICRKAQALSCDLTTFTLDLYHRSYGYRARVRAVDNSQYSNWTTTETRFTVDEVILTVDSVTLKAMDGIIYGTIHPPRPTITPAGDEYEQVFKDLRVYKISIRKFSELKNATKRVKQETFTLTVPIGVRKFCVKVLPRLESRINKAEWSEEQCLLITTEQYFTVTNLSILVISMLLFCGILVCLVLQWYIRHPGKLPTVLVFKKPHDFFPANPLCPETPDAIHIVEEKDQVMVTFQGYQKQTRWKAEAAGPAECLDEEIPLTDAFDPELGVHLQDDLAWPPPALAAGYLKQESQGMASAPPGTPSRQWNQLTEEWSLLGVVSCEDLSIESWRFAHKLDPLDCGAAPGGLLDSLGSNLVTLPLISSLQVEE
Kd [1]: 0.67 nM
